Assay results as given in patent US20260184815A1 (published 2026).
Where a chain is given by its changes, count along the chain named.

B1: M76-G06 (Fab, V domains shown)
VH: EVQLLESGGGLVQPGGSLRLSCAASGFTFSGYIMHWVRQAPGKGLEWVSWIYPSGGWTEYADSVKGRFTISRDNSKNTLYLQMNSLRAEDTAVYYCARDAPGVGAIDYWGQGTLVTVSS
VL: DIQMTQSPSSLSASVRDRVTITCRASQSISTYLNWYQQKPGEAPKLLVFAASSLQSGVPSRFSGSGSGTDFTLSISSLQPEDFATYYCQQSYSTPHTFGQGAKVEIK
notes: HC as printed runs into CH1
B2: M29-D10 (Fab, V domains shown)
VH: EVQLLESGGGLVQPGGSLRLSCAASGFTFSWYPMYWVRQAPGKGLEWVSSIGSSGGPTPYADSVKGRFTISRDNSKNTLYLQMNSLRAEDTAVYYCARWADYGGSLDYWGQGTLVTVSS
VL: DIQMTQSPSSLSASVGDTVSITCRASQSITIYLNWYQHKPGKAPNLLIYGASNLHSGVPSRFSGSGSGTDFTLTISSLQPEDFATYYCQQSYDTPLTFGGGTKVEIK
notes: HC as printed runs into CH1
B3: M77-H04 (Fab, V domains shown)
VH: EVQLLESGGGLVQPGGSLRLSCAASGFTFSYYTMIWVRQAPGKGLEWVSGIRSSGGGTRYADSVKGRFTISRDNSKNTLYLQMNSLRAEDTAVYYCAKDGSRYSYGSIYYYYGMDAWGQGTTVTVSS
VL: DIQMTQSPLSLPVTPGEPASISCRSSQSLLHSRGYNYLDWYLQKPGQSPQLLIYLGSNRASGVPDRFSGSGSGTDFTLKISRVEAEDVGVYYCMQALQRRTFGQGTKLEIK
notes: HC as printed runs into CH1
B4: M76-H02 (Fab, V domains shown)
VH: EVQLLESGGGLVQPGGSLRLSCAASGFTFSMYWMQWVRQAPGKGLEWVSYIYPSGGPTKYADSVKGRFTISRDNSKNTLYLQMNSLRAEDTAVYYCARPSGSYGDAFDIWGQGTMVTVSS
VL: DIQMTQSPSSLSASEGDRVTITCRASQDISVYLNWYQMKSGKAPKLLIYGGASLQSGVPARFSGSGYGTDFTLTITDLRPEDFATYYCQQSYSLPFTFGGGTKVEIK
notes: HC as printed runs into CH1
B5: M28-E11 (Fab, V domains shown)
VH: EVQLLESGGGLVQPGGSLRLSCAASGFTFSLYDMTWVRQAPGKGLEWVSGISSSGGVTIYADSVKGRFTISRDNSKNTLYLQMNSLRAEDTAVYYCARTYYYDSSGYADAFDIWGQGTMVTVSS
VL: DIQMTQSPSSVSASVGDRVTINCRASQDISNWLAWYQQKPGKAPNLLIYAASSLQTGAPSRFSGSGSGTDFTLTISSLQPEDFGTYVCQQSYSLPWTFGLGTKVEVR
notes: HC as printed runs into CH1
B6: M29-G10 (Fab, V domains shown)
VH: EVQLLESGGGLVQPGGSLRLSCAASGFTFSFYKMIWVRQAPGKGLEWVSSISSSGGSTQYADSVKGRFTISRDNSKNTLYLQMNSLRAEDTAVYYCARDRVDLGYLDYWGQGTLVTVSS
VL: DIQMTQSPSSLSSSVGDSATITCRASQSISIYLNWYQQKPGKAPKILIYGASQLESGVPSRFSGSGSGTDFTLTVSGLQPEDFATYWCQQSYNVPYTFGQGTKLEIK
notes: HC as printed runs into CH1
B7: M28-F01 (Fab, V domains shown)
VH: EVQLLESGGGLVQPGGSLRLSCAASGFTFSVYLMHWVRQAPGKGLEWVSGISPSGGYTQYADSVKGRFTISRDNSKNTLYLQMNSLRAEDTAVYYCARPGGLDAFDIWGQGTMVTVSS
VL: DIQMTQSPSSLSASVGDRVTITCRASQSINTYLNWYQQKPGKAPKVLIHAASTLESGVPSRFSGSGSGTDFTLTISSLQPEDFATYYCQQSYSTPPTFGQGTKVEIK
notes: HC as printed runs into CH1
B8: M76-F02 (Fab, V domains shown)
VH: B7 VH with V31L, L33D, H35N, Y57Q, Q59M, P99Q, G100P, G101M, L102I, D103S
VL: DIQMTQSPSSLSASVGDRVTITCRASQTIDNYLHWYQQKPGKAPKVLIHDASSLQSGVPPRFSGSGSGTDFTLTISSLQPEDFATYYCQQSYDTPQYTFGQGTKLEIK
notes: HC as printed runs into CH1
B9: M29-G08 (Fab, V domains shown)
VH: EVQLLESGGGLVQPGGSLRLSCAASGFTFSYYHMWWVRQAPGKGLEWVSGISPSGGFTFYADSVKGRFTISRDNSKNTLYLQMNSLRAEDTAVYYCARDYYYDSSGYSPLGYWGQGTLVTVSS
VL: DIQMTQSPATLSASPGETVTLSCRASQNIGNDVAWYRQRPGQAPRLLIHHASTRAYGIPARLRGSGSATEFTLTITSLEPEDFAIYYCQQFYDWPAHTFALGTRLEIKR
notes: HC as printed runs into CH1
B10: M29-E02 (Fab, V domains shown)
VH: EVQLLESGGGLVQPGGSLRLSCAASGFTFSRYPMMWVRQAPGKGLEWVSVIYPSGGDTFYADSVKGRFTISRDNSKNTLYLQMNSLRAEDTAVYYCASGDDYLWEAAVYWGQGTLVTVSS
VL: QSVLTQPPSVSEAPRQRVTISCSGSSSNIGNNAVSWYQQLPGKAPKLLIYYDDLLPSGVSDRFSGSKSGTSASLAISGLRSEDEADYYCAAWDDSLNGFVFGTGTKVTVL
notes: HC as printed runs into CH1
B11: M74-A07 (Fab, V domains shown)
VH: EVQLLESGGGLVQPGGSLRLSCAASGFTFSQYLMMWVRQAPGKGLEWVSSIYPSGGYTSYADSVKGRFTISRDNSKNTLYLQMNSLRAEDTAVYYCARVSTAVADNDYWGQGTLVTVSS
VL: DIQMTQSPSSLSASVRDRVTITCRTSQNINTYLNWYYQAPGRAPKLLIFGVSSLHRGVSSRFSGSGDGTEFTLTISSLQPEDIGTYFCQQSYSSPWTFGQGTKVEIK
notes: HC as printed runs into CH1
B12: M29-C07 (Fab, V domains shown)
VH: EVQLLESGGGLVQPGGSLRLSCAASGFTFSGYDMMWVRQAPGKGLEWVSVISSSGGNTAYADSVKGRFTISRDNSKNTLYLQMNSLRAEDTAVYYCARESSGLYYFDYWGQGTLVTVSS
VL: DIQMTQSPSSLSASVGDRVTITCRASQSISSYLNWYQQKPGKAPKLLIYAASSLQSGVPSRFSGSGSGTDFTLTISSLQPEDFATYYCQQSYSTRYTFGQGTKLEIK
notes: HC as printed runs into CH1
B13: M76-G02 (Fab, V domains shown)
VH: EVQLLESGGGLVQPGGSLRLSCAASGFTFSLYAMWWVRQAPGKGLEWVSYISSSGGFTSYADSVKGRFTISRDNSKNTLYLQMNSLRAEDTAVYYCARYRVGVAATDYWGQGTLVTVSS
VL: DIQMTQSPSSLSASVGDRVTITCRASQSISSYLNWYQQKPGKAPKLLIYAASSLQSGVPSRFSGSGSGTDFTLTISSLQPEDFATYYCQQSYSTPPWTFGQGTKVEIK
notes: HC as printed runs into CH1
B14: M28-E01 (Fab, V domains shown)
VH: EVQLLESGGGLVQPGGSLRLSCAASGFTFSSYPMGWVRQAPGKGLEWVSRISSSGGMTIYADSVKGRFTISRDNSKNTLYLQMNSLRAEDTAVYYCARDDWNVGMDVWGQGTTVTVSS
VL: DIQMTQSPSSLSASVGDRVTITCRASQSISSYLNWYQQKPGKAPKLLIYAASSLQSGVPSKFSGSGSGTDYTLTISSLQPEDFATYYCQQTYTTPWTFGQGTKVEIK
notes: HC as printed runs into CH1
B15: M77-C07 (Fab, V domains shown)
VH: B1 VH with G31L, H35G, W50G, W57F, E59M, D99E, A100S, P101S, G104A, I106P
VL: B14 VL with S10T, S28N, K61R, Y71F, Y87S, T91S, T93S, W96R
notes: HC as printed runs into CH1
B16: M28-F07 (Fab, V domains shown)
VH: EVQLLESGGGLVQPGGSLRLSCAASGFTFSDYTMYWVRQAPGKGLEWVSSIVPSGGHTLYADSVKGRFTISRDNSKNTLYLQMNSLRAEDTAVYYCAKDHLSSWYGGFFDYWGQGTLVTVSS
VL: DIQMTQSPSSVSASVGDRVTITCRASQGISSWLAWYQQKPGKAPKLLIYATSGLQSGVPSRFSGSGSGTDFTLTISSLQPEDFATYYCQQAKSFPLTFGGGTRVEIK
notes: HC as printed runs into CH1

Biological target: T1, human plasma kallikrein (human, UniProt P03952 20-390; P03952 391-638)
T1 construct: also called pKal; Human pKal
Assay: ELISA, biotinylated pKal signal over streptavidin background
Text: Abbreviations used: “T/B” is the ELISA signal obtained using of the “target” (biotinylated plasma kallikrein) divided by the ELISA signal of the “background” (streptavidin); both of which were coated on microtiter plates, “nd” is not determined. The symbol “q” refers to the amber suppressible stop codon (TAG), which is translated as glutamine (Q) in strains of E. coli such as the TG1 cells that were used to express the Fab fragments.

T1 sequence (P03952 20-390, chain 1 of 2): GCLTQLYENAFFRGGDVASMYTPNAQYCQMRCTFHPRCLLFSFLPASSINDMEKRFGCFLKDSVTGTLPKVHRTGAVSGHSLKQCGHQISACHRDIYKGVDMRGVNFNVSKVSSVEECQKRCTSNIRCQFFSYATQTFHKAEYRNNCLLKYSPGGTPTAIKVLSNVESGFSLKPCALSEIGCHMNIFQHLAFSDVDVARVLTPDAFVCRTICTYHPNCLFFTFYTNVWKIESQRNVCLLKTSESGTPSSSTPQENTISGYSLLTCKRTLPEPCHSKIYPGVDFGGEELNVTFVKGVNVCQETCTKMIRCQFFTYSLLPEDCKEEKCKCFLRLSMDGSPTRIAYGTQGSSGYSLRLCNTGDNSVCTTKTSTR
T1 sequence (P03952 391-638, chain 2 of 2): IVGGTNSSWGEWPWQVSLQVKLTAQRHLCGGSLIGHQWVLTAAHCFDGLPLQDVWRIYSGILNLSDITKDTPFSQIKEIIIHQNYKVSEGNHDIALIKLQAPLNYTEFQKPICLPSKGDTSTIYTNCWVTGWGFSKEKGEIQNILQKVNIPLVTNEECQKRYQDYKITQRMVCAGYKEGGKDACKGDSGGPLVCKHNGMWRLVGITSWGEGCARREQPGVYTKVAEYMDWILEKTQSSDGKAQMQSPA

| Binder | ELISA (T/B) |
| --- | --- |
| B1 | 11.8 |
| B2 | 23.6 |
| B3 | 7.6 |
| B4 | 13.4 |
| B5 | 29.3 |
| B6 | 16.4 |
| B7 | 1.5 |
| B8 | 6.4 |
| B9 | 40.4 |
| B10 | 2 |
| B11 | 8.6 |
| B12 | 5.2 |
| B13 | 10.3 |
| B14 | 41 |
| B15 | 16.1 |
| B16 | 33 |
